Test results reported in paper PMC12719649.

Columns and labels:
[1] = biological target: MED14-NTD+H+M+MED26, 16-subunit recombinant human core Mediator with f:MED14-NTD (1-760) (human) (UniProt O60244)
[2] = biological target: MED14-NTD+H+M+MED26, 16-subunit recombinant human core Mediator with f:MED14-NTD (1-760) (human) (UniProt O60244); test: co-IP; competition: MED14-NTD+H+M+MED26 on anti-MED30 beads with Pol II and recombinant RPB1 as competitor, equal amounts of His:RPB1 or up to 10-fold more f:RPB1 or f:ΔCTD RPB1 than Pol II; western blot

basal in vitro transcription from AdML core promoter templates in Mediator-depleted HeLa NE, 50 nM complex, against Mediator-deficient controls [1] [fold] | percent reversal of the MED14-NTD+H+M+MED26-Pol II interaction at a 1:1 ratio [2] [%] | Substance
> 15 |  | RNA polymerase II (Pol II), Gdown1-free, purified from HeLa nuclear extract (from UniProt P24928 1-1970; P30876 1-1174; P19387 1-275; O15514 1-142; P19388 1-210; P61218 1-127; P62487 1-172; P52434 1-150; P36954 1-125; P62875 1-67; P52435 1-117; P53803 1-58) (complex)
 | < 50 | recombinant His:RPB1 (from UniProt P24928 1-1970) (natural protein)
